The nature of data set [1]: HerDox stability in serum-containing media at 37° C (Ni beads). In kind it is in vitro ADME. The note with it: 10% fetal bovine serum media. The protocol: FIGS. 6 (A)-(B) illustrates conjugate stability under different storage conditions, or in serum. As illustrated in FIG. 6 (A), HerDox was incubated up to 12 days at 4° C., RT, or 37° C. Samples were filtered through ultrafiltration spin columns every other day, and retentate and filtrate absorbances measured at 480 nm to determine relative Dox retention or release from conjugates, respectively. As illustrated in FIG. 6 (B), to mimic extended exposure to cells in culture medium, HerDox immobilized on Ni-NTA beads were incubated with bovine serum in DMEM for the indicated times at 37° C. before each sample was pelleted. Absorbance of supernatants (Filtrates) and bead eluates (Retentates) were measured at 480 nm to detect Dox. Relative Dox release or retention in serum is expressed as normalized to control (corresponding sample lacking serum). N=3 per time point.
The inventors tested the stability of HerDox over 12 days under different storage temperatures: 4° C., room temperature, or 37° C. On each day, a sample underwent ultrafiltration, then filtrates and retentates were measured to determine whether any Dox was released from the complex. […] The inventors also examined HerDox stability in serum-containing media at 37° C. […] Dox retention in the conjugate was also assessed by eluting the conjugate from the beads at each time point.

Data set [2] in a line: HerDox stability in cell culture media, agarose gel. The note with it: serum-containing culture media, 37° C. In kind it is in vitro ADME. The protocol: FIGS. 9 (A)-(C) illustrates targeting in a mixed cell culture. As illustrated in FIG. 10 (A), equal numbers of MDA-MB-435 and GFP(+) MDA-MB-231 cells were treated with Dox alone (0.5 uM), Her-Dox (containing 0.5 uM Dox), or HerPBK10 (1.2 ug/well, equivalent to HerPBK10 in HerDox). Wells were assayed for GFP fluorescence (to determine relative MDA-MB-231 number) and crystal violet staining (to determine total cell number). As illustrated in FIG. 9 (B), cell survival was determined by calculating the relative doubling time (DT) of experimental (exp) cells normalized by control (con) cells based on the crystal violet stains (total cells) and GFP fluorescence (MDA-MB-231 cells). The DT of MDA-MB-435 was determined by subtracting the DT of MDA-MB-231 from the total cell DT. Relative survival is shown for Day 2 of treatment. As illustrated in FIG. 9 (C), there is stability in cell culture. Aliquots of culture media containing HerDox (after incubation for the indicated times at 37° C.) were electrophoresed on a 2% agarose gel. HerDox incubated at 37° C. in HEPES-buffered saline, lacking serum, was processed in parallel. Dox fluorescence was visualized by UV excitation. Free Dox (Dox alone) is not retained in the gel whereas Dox incorporated in HerDox is. […]

The subject of data set [3] is bilateral flank tumors (HER2+). Briefly: In vivo tumor toxicity, tumor growth. On the set-up: species or system mice. As to conditions: daily tail vein injections, 0.004 mg/kg Dox conc, 7 consecutive days. The protocol:
FIGS. 12 (A)-(D) illustrates comparison of HerDox and Dox on (A) tumor growth, (B) animal weight, (C) cardiac tissue, and (D) cardiac function.
To assess in vivo tumor toxicity, mice bearing 3-4 week bilateral flank tumors began receiving daily tail vein injections of Dox or HerDox (0.004 mg/kg with respect to Dox conc), HerPBK10 alone (at equivalent protein concentration to HerDox) or saline for 7 consecutive days.

A further data set relates to MDA-MB-435. The data set can be described thus: Cytotoxicity on cell lines (Table I). In kind it is cell-based. As to conditions: 50% reduction in cell survival, mean ± 1 SD, read-out: EC50** (uM HerDox). Here is the method:
(§1) FIGS. 17 (A)-(B) illustrates relative cell surface HER subunit levels and cytotoxicity on cell types. FIG. 17 (A) depicts a graph of relative cell surface HER subunit levels as measured by ELISA. Cells were incubated with anti-HER subunit antibodies followed by HRP-conjugated secondary antibodies using standard procedures. Relative cell numbers were measured by crystal violet staining and quantified by measuring crystal violet absorbance at 590 nm. Relative subunit levels are reported as the ELISA signal of each cell population normalized by the relative cell number, or Abs 450 run/590 nm. FIG. 17 (B) depicts toxicity to cells displaying differential HER2. Cytotoxicities from a range of HerDox doses were assessed on each cell line by metabolic assay and confirmed by crystal violet stain. CD50 values shown in log scale were determined by non-linear regression analyses of HerDox dose curves using a scientific graphing program and confirmed using a calculator. The relative HER2 level of each cell line is shown next to each CD50 value.

The test system of another data set is SKOV3. Briefly: Cytotoxicity on cell lines (Table I). The note with it: 50% reduction in cell survival, mean ± 1 SD, read-out: EC50** (uM HerDox). In kind it is cell-based. Here is the method:
as §1

The subject of another data set is T47D. The data set can be described thus: Cytotoxicity on cell lines (Table I). In kind it is cell-based. The note with it: 50% reduction in cell survival, mean ± 1 SD, read-out: EC50** (uM HerDox). The protocol: as §1

B1: HerDox: non-covalent complex of HerPBK10, a small double-stranded nucleic acid and intercalated Dox (conjugate)
chain: LPPRLKEMKSQESAAGSKLVLRCETSSEYSSLRFKWFKNGNELNRKNKPQNIKIQKKPGKSELRINKASLADSGEYMCKVISKLGNDSASANITIVESNEIITGMPASTEGAYVSSESPIRISVSTEGANTSSSTSTSTTGTSHLVKCAEKEKTFCVNGGECFMVKDLSNPSRYLCKCQPGFTGARCTENVPMKVQNQEKAEELYMRRAAMYEEGPPPSYESVVSAAPVAAALGSPFDAPLDPPFVPPRYLRPTGGRNSIRYSELAPLFDTTRVYLVDNKSTDVASLNYQNDHSNFLTTVIQNNDYSPGEASTQTINLDDRSHWGGDLKTILHTNMPNVNEFMFTNKFKARVMVSRLPTKDNQVELKYEWVEFTLPEGNYSETMTIDLMNNAIVEHYLKVGRQNGVLESDIGVKFDTRNFRLGFDPVTGLVMPGVYTNEAFHPDIILLPGCGVDFTHSRLSNLLGIRKRQPFQEGFRITYDDLEGGNIPALLDVDAYQASLKDDTEQGGGGAGGSNSSGSGAEENSNAAAAAMQPVEDMNDHAIRGDTFATRAEEKRAEAEAAAEAAAPAAQPEVEKPQKKPVIKPLTEDSKKRSYNLISNDSTFTQYRSWYLAYNYGDPQTGIRSWTLLCTPDVTCGSEQVYWSLPDMMQDPVTFRSTRQISNFPVVGAELLPVHSKSFYNDQAVYSQLIRQFTSLTHVFNRFPENQILARPPAPTITTVSENVPALTDHGTLPLRNSIGGVQRVTITDARRRTCPYVYKALGIVSPRVLSSRTFKKKKKKKKKK
modifications: left off: small tags and cut ends
notes: non-covalent complex of HerPBK10, a small double-stranded nucleic acid and intercalated Dox
What is called EC50 is the concentration giving half of the maximal effect. Take B1: in data set [1], the “release of Dox from the conjugate in serum” value was “no significant release of Dox”. The “Dox retention by the conjugate in serum” value in data set [1] (each time point) is recorded as “completely retained”. Moreover, the “loss of Dox fluorescence from conjugate over time” value in data set [2] is “no such loss from HerDox is detectable”. Further, the tumor growth result in data set [3] was “essentially prevented tumor growth”. Moreover, the EC50 stood at 0.74 ± 0.07 µM in the data set with MDA-MB-435, 0.18 ± 0.03 µM in the data set on SKOV3 and 0.64 ± 0.04 µM in the data set on T47D.

The values are drawn from patent publication US10391180B2, “Self-assembling complex for targeting chemical agents to cells” (CEDARS-SINAI MEDICAL CENTER, priority 2007, dated 2019).
